Data: US20100183584A1, “CONFORMATION AND ACTIVITY OF GBETA5 COMPLEXES” (University Of Miami, priority 2007, published 2010)
Changes are numbered by the printed parent chain. Values belong to the molecule of their own block, whether it stands above or below them.

Columns and labels:
[1] = molecular target: full-length RGS7-Gβ5 complex (recombinant, co-expressed in cells) (bovine) (UniProt O46470); experiment: GST pull-down from COS-7 lysate, western blot
[2] = molecular target: Gβ5-RGS7^249-469 complex (bovine) (UniProt O46470); experiment: GST pull-down from COS-7 lysate, western blot
[3] = molecular target: native RGS7-Gβ5 complex from mouse brain extract (mouse) (UniProt P62881); experiment: GST pull-down from mouse brain extract, western blot
[4] = molecular target: muscarinic acetylcholine M3 receptor (M3R), full length, expressed in CHO cells (human) (UniProt P20309); experiment: cell-based or functional assay
GST = molecular target: T1, GST (UniProt P08515 1-218 = GST); experiment: GST pull-down from CHO cell lysate
T1 construct: Negative control in pull-down and FRET assays; also called GST alone; immobilized GST

[5] = molecular target: T2, Gβ5-RGS7 dimer (CFP-Gβ5/YFP-RGS7) (UniProt O14775+O46470); experiment: FRET between CFP-Gβ5 and YFP-RGS7 in COS-7 cell lysates; type: binding, bovine; settings: GST-R7DEP added to COS-7 lysate; GST alone had no effect
T2 construct: YFP fusion of full-length RGS7 (YFP-RGS7) and CFP-Gβ5; expressed in transfected cells; host or cells: COS-7 (transient; lysate measured)
T2 sequence (O14775 1-353 isoform O14775-2): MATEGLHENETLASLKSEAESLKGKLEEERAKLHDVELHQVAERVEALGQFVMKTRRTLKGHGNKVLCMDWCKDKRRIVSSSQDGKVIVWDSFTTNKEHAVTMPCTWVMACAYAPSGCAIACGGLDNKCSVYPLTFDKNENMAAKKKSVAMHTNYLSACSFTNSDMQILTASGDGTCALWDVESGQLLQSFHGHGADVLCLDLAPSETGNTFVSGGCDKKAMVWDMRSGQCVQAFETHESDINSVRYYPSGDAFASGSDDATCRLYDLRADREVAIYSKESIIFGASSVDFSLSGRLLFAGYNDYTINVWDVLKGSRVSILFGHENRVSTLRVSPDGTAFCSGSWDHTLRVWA
T2 sequence (O46470 1-469): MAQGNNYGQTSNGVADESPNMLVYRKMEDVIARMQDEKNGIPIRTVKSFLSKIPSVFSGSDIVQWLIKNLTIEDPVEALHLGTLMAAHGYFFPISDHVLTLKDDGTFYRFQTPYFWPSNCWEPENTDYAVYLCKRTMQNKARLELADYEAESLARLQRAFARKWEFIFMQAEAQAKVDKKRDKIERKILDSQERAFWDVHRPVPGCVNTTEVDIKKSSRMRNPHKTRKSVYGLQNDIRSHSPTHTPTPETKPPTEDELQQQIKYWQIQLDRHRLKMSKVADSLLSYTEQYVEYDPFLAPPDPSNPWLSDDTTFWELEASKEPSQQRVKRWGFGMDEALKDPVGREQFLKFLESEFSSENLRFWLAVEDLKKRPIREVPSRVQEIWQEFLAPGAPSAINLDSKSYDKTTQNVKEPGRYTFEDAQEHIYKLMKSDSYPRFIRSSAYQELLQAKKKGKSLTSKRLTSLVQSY
Text: To measure FRET, COS-7 cells were transiently transfected with plasmids encoding YFP-RGS7 and CFP-Gβ5. Control cells were co-transfected with YFP-RGS7 together with untagged Gβ5, and CFP-Gβ5 together with untagged RGS7. The lysates of these cells were subjected to spectroscopic analysis, as described in Example 1. Shown are the resulting FRET spectra obtained after subtraction of the YFP background fluorescence during the CFP excitation and CFP “bleed-through” into the YFP emission channel. A. Right panel: GST R7-DEP (black symbols) or buffer (open symbols) was added to the lysate prior to recording of the spectra. […]
To permit the association of exogenously added DEP domain with Gβ5, the intra-molecular interaction between the intrinsic DEP and Gβ5 must be dynamic and have relatively low affinity. To investigate this hypothesis, a protein-protein binding assay based on fluorescence resonance energy transfer (FRET) was devised. […]
FRET between CFP— and YFP-tagged proteins was determined on a photon counting spectrofluorometer (PTI, Inc.) (28). Briefly, the cell lysates were placed in a 4 ml quartz cuvette, and the spectra were recorded at room temperature with continuous mixing of the lysate with a magnetic stirrer. CFP was excited at 433 nm (2-4 nm slit width, depending on the intensity of fluorescence signal) and the emission spectra were obtained between 465 and 555 nm. […]

[6] = molecular target: T3, native RGS7-Gβ5 complex from mouse brain extract (mouse, UniProt P62881 1-353; O54829 1-469, limits assumed); experiment: GST pull-down from mouse brain extract, western blot with anti-RGS7 and anti-Gβ5
T3 construct: Native complex in a cholate extract of brain membranes; may also carry R7BP; also called native Gβ5-RGS7; Gβ5-RGS complexes (brain)
T3 sequence (looked up) 1: T2 sequence (O14775 1-353 isoform O14775-2) with E4D, I242V
T3 sequence (looked up) 2: T2 sequence (O46470 1-469) with Q259H, A298V, K371R, K452R, S456T

Chain of muscarinic acetylcholine M3 receptor (M3R), full length, expressed in CHO cells (human) (P20309 whole entry): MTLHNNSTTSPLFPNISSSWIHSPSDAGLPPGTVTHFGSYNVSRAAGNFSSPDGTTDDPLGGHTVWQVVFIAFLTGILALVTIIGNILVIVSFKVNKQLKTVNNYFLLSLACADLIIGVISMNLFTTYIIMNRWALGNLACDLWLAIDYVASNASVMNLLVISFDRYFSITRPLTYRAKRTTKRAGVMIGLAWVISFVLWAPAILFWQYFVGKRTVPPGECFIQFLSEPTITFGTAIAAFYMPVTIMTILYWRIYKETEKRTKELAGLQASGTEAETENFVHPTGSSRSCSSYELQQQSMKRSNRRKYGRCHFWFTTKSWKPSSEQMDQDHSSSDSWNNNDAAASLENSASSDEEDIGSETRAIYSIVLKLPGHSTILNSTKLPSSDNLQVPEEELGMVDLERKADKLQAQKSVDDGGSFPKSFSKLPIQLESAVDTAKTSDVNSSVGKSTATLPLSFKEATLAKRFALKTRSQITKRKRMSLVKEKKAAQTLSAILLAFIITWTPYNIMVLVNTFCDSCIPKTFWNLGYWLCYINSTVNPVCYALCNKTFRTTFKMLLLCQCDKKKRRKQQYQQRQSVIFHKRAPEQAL
T1 sequence (P08515 whole entry): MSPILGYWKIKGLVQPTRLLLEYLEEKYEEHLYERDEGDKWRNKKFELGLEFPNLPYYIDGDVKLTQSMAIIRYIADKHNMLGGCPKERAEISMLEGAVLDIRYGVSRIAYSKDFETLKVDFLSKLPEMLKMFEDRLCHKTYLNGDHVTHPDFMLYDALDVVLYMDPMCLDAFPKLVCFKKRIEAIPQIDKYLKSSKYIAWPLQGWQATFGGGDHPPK

reduction of the amplitude of carbachol-induced Ca^2+ transients in CHO-R7BP cells [4]: > 50%
Molecule: full-length RGS7 ED/SG mutant (RGS7^ED/SG, E73S/D74G) co-expressed with Gβ5 (from UniProt O46470 1-469)

binding result (GST): no binding
B1: YFP-DEP (amino acids 1-124 of full-length bovine RGS7 fused to the C-terminus of YFP) (other, UniProt O46470 1-124, looked up)
chain: MAQGNNYGQTSNGVADESPNMLVYRKMEDVIARMQDEKNGIPIRTVKSFLSKIPSVFSGSDIVQWLIKNLTIEDPVEALHLGTLMAAHGYFFPISDHVLTLKDDGTFYRFQTPYFWPSNCWEPE
notes: range 1-124; also called DEP domain; DEP domain of RGS7; not shown: yellow fluorescent protein (YFP) of the pEYFPC1 vector

binding result [6]: no binding
B3: GST-R9DEP (GST fusion of the putative DEP domain of RGS9, amino acids 20-117 of bovine RGS9) (other, UniProt O46469 20-117, looked up)
chain: IEALVKDMQDPDTGVRVQNQKVKVVSIPHAMTGSDVLQWISQRLWISGLEAQNLGNFIVKYGYIYPLQDPRNLTLKPDSSLYRFQTPYFWPTQQWPAE
notes: range 20-117; not shown: glutathione S-transferase (GST) tag of the pGEX-KG vector

More lines, now with the values behind:

Molecule: GST-R7DEP ED/SG mutant (E73S/D74G) (from UniProt O46470 34-124)
fold reduction in the amount of Gβ5 pulled down relative to the wild-type DEP domain [1]: > 10 fold
fold reduction in the amount of Gβ5 pulled down relative to the wild-type DEP domain [2]: > 10 fold
fold reduction in the amount of Gβ5 pulled down relative to the wild-type DEP domain [3]: > 10 fold

B2: GST-R7DEP: GST fusion construct containing the amino acids 34-124 of bovine RGS7 (protein)
chain: MQDEKNGIPIRTVKSFLSKIPSVFSGSDIVQWLIKNLTIEDPVEALHLGTLMAAHGYFFPISDHVLTLKDDGTFYRFQTPYFWPSNCWEPE
modifications: left off: a dimerising Fc or GST
notes: GST fusion construct containing the amino acids 34-124 of bovine RGS7
FRET reduction, of the total FRET signal [5]: 15-20%
